This series has as its target T1, phosphorylated HGFR (pHGFR) (Homo sapiens, UniProt P08581).
T1 construct: The cDNA corresponding to residues 1051-1349 of the HGFR kinase catalytic domain (HGFRkd) was cloned into a pFastBac plasmid; added N-terminal methionine (start codon of the NcoI site) (N); made in house; host or cells: Sf9 insect cells, recombinant baculovirus; then autophosphorylated in vitro with MgATP
As to the kind of experiment: Coupled enzymatic (PK/LDH) kinase assay, phospho-HGFR. The class given is biochemical. The conditions noted are these: coupled, enzymatic format; phosphorylation state of HGFR not stated; read-out: Km, Dephosphorylated α-casein. The procedure: A coupled enzymatic assay format was used to measure both HGFR and phospho-HGFR(PHGFR) activities. The kinase-catalyzed production of ADP from ATP that accompanies phosphate transfer to the random copolymer poly(Glu4Tyr) or peptide substrate was coupled to the oxidation of NADH through the activities of pyruvate kinase (PK) and lactate dehydrogenase (LDH). NADH conversion to NAD^+ was monitored by the decrease in absorbance at 340 nm (ε=6.22 cm^−1 mM^−1) using a Beckman DU650 spectrophotometer. A typical reaction solution contained 1 mM phosphoenolpyruvate, 0.24 mM NADH, 40 mM MgCl2, 5 mM DTT, poly(Glu4Tyr), ATP, 15 units/mL PK, 15 units/mL LDH in 100 mM HEPES, pH 7.5. […]
The kinetic consequences of the autophosphorylation were investigated. HGFR and pHGFR activities were evaluated in two distinct and complementing assay formats. […] NADH conversion to NAD^+ was monitored spectrophotometrically by the decrease in absorbance at 340 nm (ε=6.22 cm^−1 mM^−1). […]
Inhibition of HGFR and pHGFR were monitored in two distinct assay formats to insure valid results. The coupled, enzymatic format (CE) was a continuous assay that measured ADP production through the sequential action of two standard coupling enzymes (pyruvate kinase and lactate dehydrogenase). The radioactive assay format was a discontinuous assay that measured phospho-protein production directly. […]

T1 sequence (P08581 1051-1349): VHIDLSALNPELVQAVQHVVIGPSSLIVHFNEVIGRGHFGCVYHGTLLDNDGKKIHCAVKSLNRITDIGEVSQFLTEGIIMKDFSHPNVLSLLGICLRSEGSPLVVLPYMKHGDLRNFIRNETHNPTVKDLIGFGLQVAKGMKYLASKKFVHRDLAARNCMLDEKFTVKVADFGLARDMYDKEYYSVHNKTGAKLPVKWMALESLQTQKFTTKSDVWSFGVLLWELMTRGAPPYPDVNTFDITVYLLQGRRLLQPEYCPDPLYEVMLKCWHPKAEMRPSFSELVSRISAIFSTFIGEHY

B1: Dephosphorylated α-casein: phosphoacceptor protein substrate for HGFR (protein)
chain: RPKHPIKHQGLPQEVLNENLLRFFVAPFPEVFGKEKVNELSKDIGSESTEDQAMEDIKQMEAESISSSEEIVPNSVEQKHIQKEDVPSERYLGYLEQLLRLKKYKVPQLEIVPNSAEERLHSMKEGIHAQQKEPMIGVNQELAYFYPELFRQFYQLDAYPSGAWYYVPLGTQYTDAPSFSDIPNPIGSENSEKTTMPLW
Take B1: the Km stood at 28.5 ± 3.5 µM.

For orientation: Km means the concentration of substrate that gives half-maximal velocity.

Source of the values: patent US20040009568A1, “Catalytic domains of the human hepatocyte growth factor receptor tyrosine kinase, and materials and methods for identification of inhibitors thereof” (priority 2001, published 2004).
